Residue numbers refer to the chain shown, from its start.
T1: murine DLL3 (Mus musculus, UniProt O88516)
T1 construct: expressed in transfected cells; host or cells: 293 (HEK-293T) cells
T1 sequence (O88516 33-585 isoform O88516-2 limits assumed): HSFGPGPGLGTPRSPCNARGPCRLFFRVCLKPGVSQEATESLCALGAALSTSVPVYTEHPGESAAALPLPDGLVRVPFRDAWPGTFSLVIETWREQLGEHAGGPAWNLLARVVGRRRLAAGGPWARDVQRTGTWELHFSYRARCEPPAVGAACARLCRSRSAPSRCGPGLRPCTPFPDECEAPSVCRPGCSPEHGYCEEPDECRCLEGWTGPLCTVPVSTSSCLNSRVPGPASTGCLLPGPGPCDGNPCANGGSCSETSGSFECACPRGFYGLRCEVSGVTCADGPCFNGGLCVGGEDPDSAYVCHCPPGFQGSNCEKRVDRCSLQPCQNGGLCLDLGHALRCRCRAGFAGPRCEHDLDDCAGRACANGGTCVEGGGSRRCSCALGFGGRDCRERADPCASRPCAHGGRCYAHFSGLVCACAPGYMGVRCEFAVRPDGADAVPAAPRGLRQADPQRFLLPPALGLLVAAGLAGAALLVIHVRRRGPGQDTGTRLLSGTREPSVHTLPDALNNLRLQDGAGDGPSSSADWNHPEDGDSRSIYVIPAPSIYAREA

T2: human DLL3 antigen (Homo sapiens, UniProt Q9NYJ7)
T2 sequence (Q9NYJ7 27-618): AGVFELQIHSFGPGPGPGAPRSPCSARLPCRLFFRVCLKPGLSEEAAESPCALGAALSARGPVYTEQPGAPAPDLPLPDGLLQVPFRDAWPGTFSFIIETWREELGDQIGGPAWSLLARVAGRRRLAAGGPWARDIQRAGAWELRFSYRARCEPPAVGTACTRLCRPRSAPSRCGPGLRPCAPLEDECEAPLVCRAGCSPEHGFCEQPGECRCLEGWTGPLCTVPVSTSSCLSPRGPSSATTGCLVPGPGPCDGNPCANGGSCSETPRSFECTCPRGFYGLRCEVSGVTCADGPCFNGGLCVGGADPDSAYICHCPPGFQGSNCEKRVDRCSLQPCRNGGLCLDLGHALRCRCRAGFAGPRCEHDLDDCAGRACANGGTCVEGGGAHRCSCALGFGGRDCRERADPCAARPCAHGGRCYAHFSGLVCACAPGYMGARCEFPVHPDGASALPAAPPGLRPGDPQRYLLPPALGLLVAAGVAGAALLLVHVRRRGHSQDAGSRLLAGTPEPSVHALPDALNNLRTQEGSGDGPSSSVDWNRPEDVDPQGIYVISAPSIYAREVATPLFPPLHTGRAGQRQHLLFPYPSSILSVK

T3: recombinant human DLL3-Flag (Homo sapiens, UniProt Q9NYJ7)
T3 construct: Based on the apparent size of the DLL3 antigen (where the ECD is approximately 56 kD); Flag; purchased Adipogen International
T3 sequence (Q9NYJ7 27-492 limits assumed): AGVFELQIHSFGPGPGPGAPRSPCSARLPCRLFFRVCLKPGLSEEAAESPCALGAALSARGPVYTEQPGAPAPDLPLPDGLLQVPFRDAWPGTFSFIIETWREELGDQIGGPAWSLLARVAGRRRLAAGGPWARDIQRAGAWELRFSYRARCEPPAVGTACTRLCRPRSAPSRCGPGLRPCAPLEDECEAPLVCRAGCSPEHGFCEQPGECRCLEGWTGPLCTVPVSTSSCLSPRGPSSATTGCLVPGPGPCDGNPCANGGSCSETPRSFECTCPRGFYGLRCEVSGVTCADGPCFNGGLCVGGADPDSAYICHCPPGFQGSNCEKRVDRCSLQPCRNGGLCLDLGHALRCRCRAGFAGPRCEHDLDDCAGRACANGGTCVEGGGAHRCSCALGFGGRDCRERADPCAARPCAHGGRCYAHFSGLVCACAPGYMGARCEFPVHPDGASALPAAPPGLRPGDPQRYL

B1: SC16.34: murine anti-DLL3 monoclonal antibody, sequences in FIGS. 3A and 3B (antibody, V domains shown)
VL: SIVMTQTPKFLLVSAGDRVTITCKASQSVSNDVAWYQQKPGQSPKLLIYYASNRYSGVPDRFTGSGYGTDFTFTISTVQAEDLAVYFCQQDYSSPWTFGGGTKLEIK
VH: QIQLVQSGPELKRPGETVKISCKASGYTFTNYGMNWVKQAPGKGLKWMGWINTYTGDPTYADDFKGRFAFSLETSASTAYLQINNLKNEDTATYFCARIGGNSPSDYWGQGTSLTVSS
B2: SC16.56: murine anti-DLL3 monoclonal antibody, sequences in FIGS. 3A and 3B (antibody, V domains shown)
VL: B1 VL with A34V, S56T, T63A, T72S, S93T, K107R
VH: B1 VH with R13K, G49A, D57E, Y80S, N84I, G101D, N102S, S113T
B3: SC16.15: murine anti-DLL3 monoclonal antibody, sequences in FIGS. 3A and 3B (antibody, V domains shown)
VL: DIQMTQSPASLAASVGETVAITCRASENIYYNLAWYQQKQGKSPQLLIYTANSLEDGVPSRFSGSGSGTQYSLKINSMQPEDSATYFCKQAYDVPPTFGGGTKLEIK
VH: QVQLQQSGAELAKPGASVKMSCKASGYTFTRYWIHWIKQRPGQGLEWIGYINPTTVYTEFNQNFKDKATLTADKSSTTASMQLSSLTSEDSAVYYCARGGSNFFDYWGQGTTLTVSS
B4: SC16.23: murine anti-DLL3 monoclonal antibody, sequences in FIGS. 3A and 3B (antibody, V domains shown)
VL: QIVLTQSPAIMSASPGEKVTLTCSASSSVSSRYLYWYQQKPGSSPKLWIYSTSNLASGVPARFSGSGSGTSYSLIISSMEAEDAASYFCHQWSNYPLTFGAGTKLELK
VH: QVTLKESGPGILQPSQTLSLTCSFSGFSLSTSNTGIGWIRQPSGTGLEWLAHIWWNDDKYYNPSLKSRLTISKETSNNQVFLKITNVDTADTASYFCVQIGRDYSNYAWYFDVWGAGTTVTVSS

Assays:
murine DLL3 = biological target: T1, murine DLL3; experiment: Flow cytometry on 293 cells over-expressing murine DLL3; type: binding
Description: In addition to evaluating the exemplary modulators as set forth above, flow cytometry was performed in order to confirm that selected SC16 antibody modulators can immunospecifically associate with human DLL3 and to determine whether the same antibodies cross-react with cynomolgus, rat and/or murine DLL3. More particularly the exemplary murine antibodies were analyzed by flow cytometry using a FACSCanto II and 293 cells over-expressing murine, rat, cynomolgus or human DLL3. In some cases, exemplary murine modulators were analyzed by flow cytometry using a FACSCanto II and yeast cells displaying cynomolgus DLL3 using the methods described by Cochran et al. (J Immunol Methods. 287 (1-2):147-158 (2004).
Such results are not unexpected given that murine DLL3 is approximately 83% homologous with isoform 2 of human DLL3. It will be appreciated that this cross-reactivity may be advantageously exploited in the context of the instant invention through the use of animal models in drug discovery and development.

human DLL3 antigen = biological target: T2, human DLL3 antigen; experiment: Surface plasmon resonance (Biacore 2000), humanized versus chimeric constructs; conditions: concentration series of 25 and 12.5 nM human DLL3 antigen, 1:1 Langmuir binding model, estimated, read-out: KD of antibody binding to human DLL3 antigen
Description: Besides the aforementioned assays, humanized constructs hSC16.13, hSC16.15, hSC16.25, hSC16.34 and hSC16.56 from Example 4 were analyzed to determine if the CDR grafting process had appreciably altered their binding characteristics. In this respect the humanized constructs (CDR grafted) were compared with “traditional” chimeric antibodies comprising the murine parent (or donor) heavy and light chain variable domains and a human constant region substantially equivalent to that used in the humanized constructs. With these constructs surface plasmon resonance (SPR) was conducted using a Biacore 2000 (GE Healthcare) to identify any subtle changes in rate constants brought about by the humanization process.
Based on a concentration series of 25 and 12.5 nM of human DLL3 antigen and using a 1:1 Langmuir binding model, the KD of the SC16.15 antibody binding to human DLL3 antigen was estimated to be 0.2 nM.

[1] = biological target: T3, recombinant human DLL3-Flag; experiment: Antibody binning by competition on ForteBio RED; type: binding
Source text: As to antibody binning, a ForteBio RED was used per manufacturer's instructions to identify competing antibodies that bound to the same or different bins. Briefly, a reference antibody (Ab1) was captured onto an anti-mouse capture chip, a high concentration of non-binding antibody was then used to block the chip and a baseline was collected. Monomeric, recombinant human DLL3-Flag (Adipogen International) was then captured by the specific antibody (Ab1) and the tip was dipped into a well with either the same antibody (Ab1) as a control or into a well with a different test antibody (Ab2). […] If no further binding occurred, as determined by comparing binding levels with the control Ab1, then Ab2 was determined to be in the same bin. As known in the art this process can be expanded to screen large libraries of unique antibodies using a full row of antibodies representing unique bins in a 96-well plate. […] Based on the apparent size of the DLL3 antigen (where the ECD is approximately 56 kD) and the resolution of the binning methodology employed, it is believed that the nine identified bins represent the majority of the bins present on the DLL3 extracellular antigen.

Row | Molecule | cross-reactivity with murine DLL3 (murine DLL3) | Kd (human DLL3 antigen) [nM] | bin relation to other antibodies [1]
1 | B1 | cross-react with murine DLL3 to a greater or lesser extent | – | –
2 | B2 | cross-react with murine DLL3 to a greater or lesser extent | – | –
3 | B3 | cross-react with murine DLL3 to a greater or lesser extent | ~0.2 | –
4 | B4 | – | – | found not to bin with SC16.34 or SC16.56

From patent US9968687B2, “Anti-DLL3 antibody drug conjugates” (AbbVie Stemcentrx LLC, priority 2013, dated 2018)
